# Molecular target: CD31 (PECAM-1) (Homo sapiens) (UniProt P16284)
# Details: 5-(N-naphthylcarboxyamide)-2'-deoxyuridine (NapdU) replaces dT; SOMAmer; Flow cytometry: 1x PBS (pH 7.4), 2% FBS, 5 mM MgCl2, 0.2 mM dextran sulfate, room temperature, 15 min; aptamers heated at 95 C 5 min and cooled; Kd assay …
# UniProt P16284, sequence (P16284 28-601): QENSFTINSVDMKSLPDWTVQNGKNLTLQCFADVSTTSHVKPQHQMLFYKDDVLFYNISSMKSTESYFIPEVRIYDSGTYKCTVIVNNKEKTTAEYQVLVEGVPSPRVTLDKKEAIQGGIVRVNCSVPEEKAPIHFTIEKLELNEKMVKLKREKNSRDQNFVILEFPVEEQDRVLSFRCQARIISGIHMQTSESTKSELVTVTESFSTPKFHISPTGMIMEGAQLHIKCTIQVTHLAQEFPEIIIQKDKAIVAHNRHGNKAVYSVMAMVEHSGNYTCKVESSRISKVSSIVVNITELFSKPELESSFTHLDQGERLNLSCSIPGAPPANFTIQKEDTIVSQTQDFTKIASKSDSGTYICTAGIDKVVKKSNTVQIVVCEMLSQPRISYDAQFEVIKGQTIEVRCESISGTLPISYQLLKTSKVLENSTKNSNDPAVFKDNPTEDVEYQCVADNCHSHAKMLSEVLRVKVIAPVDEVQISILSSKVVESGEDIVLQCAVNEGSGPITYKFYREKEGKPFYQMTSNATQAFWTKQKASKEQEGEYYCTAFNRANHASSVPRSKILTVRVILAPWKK
sequence,measurement,value
TCAGCCGCCAGCCAGTTCGUAGAGGAGGUACGUAAUGUCUGGGUAUACCCCGAUAAUUGACCAGAGCACCACAGAG [AT-1 (CD31 aptamer clone 1)],Kd,2.28 nM

# — PMC4493074
